In US20160152995A1, “METHODS AND COMPOSITIONS TO IMPROVE THE SPREAD OF CHEMICAL SIGNALS IN PLANTS” (PIONEER HI-BRED INTERNATIONAL, INC., priority 2013, published 2016):

Assays:
[1] = tested on: β-gal background activity; assay: First and second round library screen (L1, L2) for induction by sulfonylurea ligands, β-gal colony assay; type: cell-based, E. coli; conditions: for Inducer preference: β-gal colony assay, L2 library screened with each ligand at 2 ppm, numbers are the patent's inducer ligand numbers, atc for wt
Description: The original library was designed to thifensulfuron, but once induction activity was established with other SU compounds having potentially better soil and in planta stability properties than the original ligand, the evolution process was re-directed towards these alternative ligands. Of particular interest were herbicides metsulfuron, sulfometuron, ethametsulfuron and chlorsulfuron. For this objective, parental clones L1-9, -22, -29 and -44 were chosen for further shuffling. Clone L1-9 has strong activity on both ethametsulfuron and chlorsulfuron; clone L1-22 has strong sulfometuron activity; clone L1-29 has moderate metsulfuron activity; and clone L1-44 has moderate activity on metsulfuron, ethametsulfuron and chlorsulfuron. (Data not shown.). No clones found in the initial screen were exceptionally reactive to metsulfuron. These four clones were also chosen due to their relatively strong repressor activity, showing low β-gal background activity without inducer. Strong repressor activity is important for establishing a system which is both highly sensitive to the presence of inducer, and tightly off in the absence of inducer.
Based on the sequence information from parental clones L1-9, -22, -29 and -44, two second round libraries were designed, constructed and screened. The first library, L2, consisted of a ‘family’ shuffle whereby the amino acid diversity between the selected parental clones was varied using synthetic assembly of oligonucleotides to find clones improved in responsiveness to any of the four new target ligands.
The L2 oligonucleotides were assembled, cloned and screened as per the protocol described for library L1 except that each ligand was tested at 2 ppm to increase the stringency of the assay, which is a 10-fold reduction from 1st round library screening concentration.

E. coli assay strain Km3 [2] = assay: Liquid B-galactosidase assays of chlorsulfuron repressor hits (induction and repression)
Procedure: In order to create new diversity for shuffling the top clone from CsL3 was subjected to error prone PCR mutagenesis using Mutazyme (Stratagene). The mutated PCR product encoding the CsR ligand binding domain was inserted into library expression vector pVER7334 as a Sac1 to Asc1 fragment, transformed into library strain Km3 and plated onto LB+40 ug/ml Kanamycin and 50 ug/ml Carbenecillin. Approximately 10,000 colonies were then replica plated onto M9 Xgal assay medium +/−20 ppb Cs. Putative hits were then re-arrayed and replica plated onto the same assay medium. Performance was gauged by the level of blue colony color after 24 hrs incubation on inducer (induction) and 72 hrs incubation without inducer (repression). The top hits were then subjected to liquid B-galactosidase assays for quantitative assessment (Table 21).
Seventh round library CsL4.2 was designed based on the best diversity from CsL3 and CsL3-MTZ library screens (Table 14). The library was assembled with oligonucleotides shown below in Table 22. The first and last primers were used as rescue primers. CsL4.2 included a C-terminal 6×His-tag extension to facilitate protein purification. The library was assembled and cloned into vector pVER7334 Sac1 to Asc1, transformed into library assay strain Km3 and plated onto LB+40 ug/m1 Kanamycin and 50 ug/ml carbenecillin. Approximately 8,000 colonies were re-arrayed into 384-well format and replica plated onto M9 Xgal assay medium +/−2 ppb Cs. Putative hits were re-arrayed in 96-well format onto the same media for re-testing. Confirmed hits were then tested for induction and repression aspects in liquid culture using B-galactosidase assays.
Mutagenesis reactions were transformed into E. coli assay strain Km3 and plated onto LB+50 ug/ml Carbenecillin. Colonies were then re-arrayed into 384 well format and replica plated onto M9 Xgal assay medium +/−5 ppb Chlorsulfuron. Putative hits were then re-arrayed and analyzed by B-galactosidase assays relative to the parent clones (FIG. 10).

E. coli assay strain Km3 [3] = type: cell-based
Procedure: Library L6 was assembled, rescued, ligated into pVER7314, transformed into E. coli KM3 and plated out onto LB carbenicillin/kanamycin, and carbenicillin only control media as before. Library plates were then picked into 42 384-well microtiter plates (˜16,000 clones) containing 60 μl LB carbenicillin (Cb) broth per well. After overnight growth at 37° C. the cultures were stamped onto M9 assay plates containing no inducer, 0.2 ppm, and 2.0 ppm chlorsulfuron as test inducer. Following incubation at 30° C. for ˜48 hrs, putative hits responding to chlorsulfuron treatment as determined by increased blue colony color were re-arrayed into six 96-well microtiter plates and used to stamp a fresh set of M9 assay plates to confirm the above results. For a more detailed analysis of the relative induction by chlorsulfuron, digital photographs were taken of the plates after various time points of incubation at 30° C. and colony color intensity measured using the digital image analysis freeware program ImageJ (Rasband, US National Institutes of Health, Bethesda, Md., USA, rsb.info.nih.gov/ij/, 1997-2007). […] From this analysis sequence-activity relationships were derived. […] Briefly, C at position 100, and Q at positions 108 and 109 strongly correlated with activation, while R at position 138, L at position 170, and A or G at position 173 were highly preferred in clones with the lowest background activity. […] This information will aid in the design of further libraries to improve responsiveness to chlorsulfuron.
Library L8 construction and screening. Fourth round shuffling incorporated the best diversity from Rd3 shuffling (BB1860) as well as computational diversity (Table 14). As diversity was very high the library oligo mix was spiked into the parental hit variant oligo mix (5, 10, and 25% mixes) to titer down the number of residue changes per clone. In addition, to varying residues for Cs activity, seven residues (C68, C86, C88, C121, C144, C195, and C203) were varied with TetR family phylogenetic substitutions in an attempt to reduce the number of cysteine residues in the repressor. The PCR assembled libraries were cloned Sac1/Asc1 into pVER7334. This plasmid encodes PBAD promoter controlled expression of a plant optimized TetR DNA binding domain fused to the wt ligand binding domain of TetR(B) encoded by native Tn10 sequence on a Sac1 to Asc1 fragment. Approximately 15,000 clones were screened for blue colony color on the M9 Xgal assay plates +/−200 ppb Chlorsulfuron (Cs). Clones were ranked by ratio of color with inducer after 24 hrs incubation over colony color without inducer for 48 hrs of incubation. The sequence trend in the overall larger population of hits (first re-array) was that L55, R104, W105 and L170 were maintained while the C144A substitution was highly preferred. Sequence trends within the hit population were then noted with respect to repression, induction and fold induction (which corrects for leakiness).
Mutagenesis reactions were transformed into library strain Km3 and 96 colonies tested for substitution by DNA sequence analysis. Substitutions representing each possible residue at each position were then re-arrayed in triplicate onto M9 X-gal assay plates with 0, 20 and 200 ppb Chlorsulfuron. Plates were incubated at 37° C. for 24 and 48 hrs prior to imaging. Residue substitutions were then ranked by activation (emphasis on 20 ppb Cs) and repression characteristics (emphasis on 48 hr time point). The mutation with the greatest impact on activity was substitution of residue N82 to phenylalanine or tyrosine. […] All other preferred substitutions shown in Table 18 either improved repression or improved sensitivity to inducer without compromising repressor function. Certain residues were indispensible to function such as R104, W105, and W174 as substitutions were not allowed. Other residue positions such as R138 and K177 were also flagged as critical since functional substitutions were extremely limited. […]

[4] = library L1 initial screen, data not shown

B1: clone L1-22: SuR polypeptide, SEQ ID NO:7 (protein)
chain: MGSRLDKSKVINSALELLNEVGIEGLTTRKLAQKLGVEQPTLYWHVKNKRALLDALAIEMMDRHHTHFCPLEGESWQDFLRNTAKSYRCALLSHRDGAKVCLGTAITEKQYETKENNLAFLCQQGFSLENALYARQAVRVFTLGCVLFDQEMQVAKEERETPTTDSMPPLLRQASELLDHQGAEPAFLFGLELIICGLEKQLKSESGS
modifications: Sulfonylurea responsive repressor
[1]; [4]
  induction activity on sulfometuron: strong
[1]
  Inducer preference: 3

B2: clone L1-29: SuR polypeptide, SEQ ID NO:10 (protein)
chain: MGSRLDKSKVINSALELLNEVGIEGLTTRKLAQKLGVEQPTLYWHVKNKRALLDALAIEMMDRHQTHFCPLEGESWQDFLRNTAKSMRCALLSHRDGAKVWLGTRWTEKQYETPENMLAFLCQQGFSLENALYAWSAVCNFTLGCVLSDQERQVAKEERETPTTDSMPPLLRQAWELSDHQGAEPAFLFGLELIICGLEKQLKCESGS
modifications: Sulfonylurea responsive repressor
[1]; [4]
  induction activity on metsulfuron: moderate
[1]
  Inducer preference: 9 (weak)

B3: clone L1-44: SuR polypeptide, SEQ ID NO:13 (protein)
chain: MGSRLDKSKVINSALELLNEVGIEGLTTRKLAQKLGVEQPTLYWHVKNKRALLDALAIEMLDRHATHFCPLEGESWQDFLRNNAKSYRCALLSHRDGAKVYLGTAVTEKQYETAENQLAFLCQQGFSLENALYAVKAVAGFTLGCVLWDQESQVAKEERETPTTASMPPLLRQAVELADHQGAEPAFLFGLELIICGLEKQLKCESGS
modifications: Sulfonylurea responsive repressor
[1]; [4]
  induction activity on chlorsulfuron: moderate
  induction activity on ethametsulfuron: moderate
  induction activity on metsulfuron: moderate
[1]
  Inducer preference: 9 (weak)

B4: L8-3F01: library L8 chlorsulfuron repressor hit, parent for saturation mutagenesis (protein)
chain: MARLDKSKVINSALELLNEVGIEGLTTRKLAQKLGVEQPTLYWHVKNKRALLDALAIEMMDRHQTHYLPLEGESWQDFLRNNAKSCRRALLSHRDGAKVCLGTRWTEQQYETAENMLAFLTQQGFSLENALYAVSAVRVFTLGAVLFDQESQVAKEERETPTTDSMPPLLRQAWELKDHQGAEPAFLFGLELIIAGLEKQLKRESGS
modifications: Sulfonylurea responsive repressor
notes: library L8 chlorsulfuron repressor hit, parent for saturation mutagenesis
E. coli assay strain Km3 [2]; CsL3-MTZ hits, 20 ppb Cs vs no inducer
  F. IND = fold induction (IND/REP) (B-galactosidase assay): 1
E. coli assay strain Km3 [2]; CsL3-MTZ hits, liquid B-galactosidase assay, 20 ppb Cs
  IND = induction with 20 ppb CS (B-galactosidase assay): 8
E. coli assay strain Km3 [2]; CsL3-MTZ hits, liquid B-galactosidase assay, no inducer
  REP = repression in absence of inducer (B-galactosidase assay): 7
E. coli assay strain Km3 [2]; CsL4.2 hits, 20 ppb Cs vs no inducer
  F. IND = fold induction (IND/REP) (B-galactosidase): 2.0
E. coli assay strain Km3 [2]; CsL4.2 hits, liquid B-galactosidase assay, 20 ppb Cs
  IND = induction with 20 ppb CS (B-galactosidase): 0.9
E. coli assay strain Km3 [2]; CsL4.2 hits, liquid B-galactosidase assay, no inducer
  REP = repression in absence of inducer (B-galactosidase): 0.4
E. coli assay strain Km3 [3]; CsL3 hits, 20 ppb Cs vs no inducer
  F. IND = fold induction (IND/REP) (Colony Assay Results): 2.5
E. coli assay strain Km3 [3]; CsL3 hits, M9 Xgal colony color, 0 ppb Cs
  REP = repression in absence of inducer (Colony Assay Results): 0.7
E. coli assay strain Km3 [3]; CsL3 hits, M9 Xgal colony color, 20 ppb Cs
  IND = induction with 20 ppb CS (Colony Assay Results): 1.6
E. coli assay strain Km3 [3]; library L8 hits, M9 Xgal colony assay, 200 ppb Chlorsulfuron, 24 hrs
  IND = induction with 200 ppb Cs at 24 hrs (blue colony color intensity thru ImageJ analysis): 1.7
E. coli assay strain Km3 [3]; library L8 hits, M9 Xgal colony assay, ratio IND (200 ppb Cs, 24 hrs) / REP (48 hrs)
  F. IND = fold induction: induction with 200 ppb Cs at 24 hrs/repression at 48 hrs: 3.0
E. coli assay strain Km3 [3]; library L8 hits, M9 Xgal colony assay, without inducer, 48 hrs
  REP = repression measured without inducer after 48 hrs (blue colony color intensity thru ImageJ analysis): 0.6
